# In patent US20190002534A1 (UNIVERSITY OF MASSACHUSETTS, published 2019):
# B1: anti-rabies virus human monoclonal antibody 17C7 (antibody, V domains shown)
# VH: QVQLVESGGGVVQPGRSLRLSCAASGFTFSTYAMHWVRQAPGKGLEWVAVVSYDGRTKDYADSVKGRFTISRDNSKNTLYLQMNSLRTEDTAVYFCARERFSGAYFDYWGQGTLVTVSS
# VL: EIVLTQSPATLSLSPGERATLSCRASQSVSSYLAWYQQKPGQAPRLLIYDASNRATGIPARFSGSGSGTDFTLTISSLEPEDFAVYSCQQRNNWPPTFGGGTKVEIK
# B2: anti-rabies virus human monoclonal antibody 2B10 (antibody, V domains shown)
# VH: EVQLVQSGGGLVHPGGSLRLSCAGSGFTFSYFAMHWVRQAPGKGLEWVSTIGTGGGTYYADSVKGRFTISRDNAKNSLYLQMNSLRAEDMAVYYCARDNALRSFDWLFYSFDYWGQGTLVTVSS
# VL: EIVLTQSPGTLSLSPGERATLSCRASQSISSSYLAWYQQKPGQAPRLLIYGASSRATGIPDRFSGSGSGTDFTLTISRLEPEDFAVYYCQRYGSSYTFGQGTKLEIK
# Experiments:
# Assay in all cases: cell-based or functional assay
# [1] = biological target: G glycoprotein of rabies virus street isolate Tadarida (Test B) (rabies virus, isolate Tadarida sp. …)
# [2] = biological target: G glycoprotein of rabies virus street isolate Gray fox (Test B) (rabies virus, isolate Gray fox (Fox …))
# [3] = biological target: G glycoprotein of rabies virus street isolate SW E fuscus (Test B) (rabies virus, isolate SW E fuscus …)
# [4] = biological target: G glycoprotein of rabies virus street isolate Skunk (north-central) (Test B) (rabies virus, isolate Skunk …)
# [5] = biological target: G glycoprotein of rabies virus street isolate Eastern pipistrelle (Test B) (rabies virus, isolate Eastern …)
# [6] = biological target: G glycoprotein of rabies virus street isolate Eptesicus fuscus (Nebraska) (Test B) (rabies virus, isolate Eptesicus fuscus …)
# [7] = biological target: G glycoprotein of rabies virus street isolate Raccoon (Florida) (rabies virus, isolate Raccoon (Florida))
# [8] = biological target: G glycoprotein of rabies virus street isolate Skunk south-central (Test B) (rabies virus, isolate Skunk …)
# [9] = biological target: G glycoprotein of rabies virus street isolate Lasiurus cinereus (Arkansas) (Test B) (rabies virus, isolate Lasiurus cinereus …)
# [10] = biological target: G glycoprotein of rabies virus street isolate CABat (rabies virus, isolate CABat (Myotis …))
# [11] = biological target: G glycoprotein of rabies virus street isolate TX Fox (rabies virus, isolate TX Fox (Fox …))
# [12] = biological target: G glycoprotein of rabies virus street isolate TN410 (rabies virus, isolate TN410 (Lasiurus …))
# [13] = biological target: G glycoprotein of rabies virus isolate Texas coyote 323R (rabies virus, isolate Texas coyote 323R)
# [14] = biological target: T1, G glycoprotein of rabies virus street isolate Myotis (rabies virus, isolate Myotis (Myotis …))
# [15] = biological target: G glycoprotein of rabies virus street isolate 1625 Bat (rabies virus, isolate 1625 Bat …)
# [16] = biological target: G glycoprotein of rabies virus street isolate TN33 (rabies virus, isolate TN33 (Lasiurus …))
# [17] = biological target: G glycoprotein of rabies virus street isolate TN269 (rabies virus, isolate TN269 (Lasiurus …))
# [18] = biological target: T2, G glycoprotein of rabies virus street isolate RAC (rabies virus, isolate RAC (Raccoon, …))
# [19] = biological target: T3, G glycoprotein of rabies virus street isolate AK fox (rabies virus, isolate AK fox (Fox, …))
# [20] = biological target: G glycoprotein of rabies virus street isolate CASK (rabies virus, isolate CASK (Skunk, U.S. …))
# [21] = biological target: T4, G glycoprotein of rabies virus street isolate Bat EF (rabies virus, isolate Bat EF (Eptesicus …))
# [22] = biological target: T5, G glycoprotein of rabies virus street isolate Sonora Dog (rabies virus, isolate Sonora Dog (Dog, …))
# [23] = biological target: T6, G glycoprotein of rabies virus street isolate C1434 (rabies virus, isolate C1434 …)
# [24] = biological target: T7, G glycoprotein of rabies virus street isolate WA Bat (rabies virus, isolate WA Bat …)
# [25] = biological target: G glycoprotein of rabies virus street isolate AZ Bat LC (rabies virus, isolate AZ Bat LC …)
# [26] = biological target: T8, G glycoprotein of rabies virus street isolate NC SK (rabies virus, isolate NC SK (Skunk, …))
# [27] = biological target: G glycoprotein of rabies virus street isolate VA1340 (rabies virus, isolate VA1340 (Lasiurus …))
# [28] = biological target: G glycoprotein of rabies virus street isolate AZ fox 2400 (rabies virus, isolate AZ fox 2400 (Fox …))
# [29] = biological target: G glycoprotein of rabies virus street isolate VA399 (rabies virus, isolate VA399 (Lasiurus …))
# [30] = biological target: T9, G glycoprotein of rabies virus street isolate PR Mong (rabies virus, isolate PR Mong …)
# [31] = biological target: G glycoprotein of rabies virus street isolate TN132 (rabies virus, isolate TN132 (Lasiurus …))
# [32] = biological target: T10, G glycoprotein of rabies virus street isolate CO Bat EF6938 (rabies virus, isolate CO Bat EF6938 …)
# [33] = biological target: T11, G glycoprotein of rabies virus street isolate TX SK 4380 (rabies virus, isolate TX SK 4380 …)
# [34] = biological target: G glycoprotein of rabies virus street isolate FLBat 769 (rabies virus, isolate FLBat 769 …)
# [35] = biological target: T1, G glycoprotein of rabies virus street …; remark: listed apart in the source
# [36] = biological target: T2, G glycoprotein of rabies virus street …; remark: listed apart in the source
# [37] = biological target: T3, G glycoprotein of rabies virus street …; remark: listed apart in the source
# [38] = biological target: T4, G glycoprotein of rabies virus street …; remark: listed apart in the source
# [39] = biological target: T5, G glycoprotein of rabies virus street …; remark: listed apart in the source
# [40] = biological target: T6, G glycoprotein of rabies virus street …; remark: listed apart in the source
# [41] = biological target: T7, G glycoprotein of rabies virus street …; remark: listed apart in the source
# [42] = biological target: T8, G glycoprotein of rabies virus street …; remark: listed apart in the source
# [43] = biological target: T9, G glycoprotein of rabies virus street …; remark: listed apart in the source
# [44] = biological target: T10, G glycoprotein of rabies virus street …; remark: listed apart in the source
# [45] = biological target: T11, G glycoprotein of rabies virus street …; remark: listed apart in the source
binder,measurement,setting,value
B1,EC50 neutralization by RFFIT (Test B),[1],1.05 µg/mL
same,EC50 neutralization by RFFIT (Test B),[2],0.002 µg/mL
same,EC50 neutralization by RFFIT (Test B),[3],675 µg/mL
same,EC50 neutralization by RFFIT (Test B),[4],7.36 µg/mL
same,EC50 neutralization by RFFIT (Test B),[5],143 µg/mL
same,EC50 neutralization by RFFIT (Test B),[6],0.002 µg/mL
same,EC50 neutralization by RFFIT (Test B),[7],1000 µg/mL
same,EC50 neutralization by RFFIT (Test B),[8],0.0004 µg/mL
same,EC50 neutralization by RFFIT (Test B),[9],10.4 µg/mL
same,EC50 neutralization by RFFIT (Test A),[10],0.006 µg/mL
same,EC50 neutralization by RFFIT (Test A),[11],0.023 µg/mL
same,EC50 neutralization by RFFIT (Test A),[12],8 µg/mL
same,EC50 neutralization by RFFIT (Test A),[13],0.01 µg/mL
same,EC50 neutralization by RFFIT (Test A),[14],0.004 µg/mL
same,EC50 neutralization by RFFIT (Test A),[15],80 µg/mL
same,EC50 neutralization by RFFIT (Test A),[16],9.11 µg/mL
same,EC50 neutralization by RFFIT (Test A),[17],400 µg/mL
same,EC50 neutralization by RFFIT (Test A),[18],0.027 µg/mL
same,EC50 neutralization by RFFIT (Test A),[19],0.005 µg/mL
same,EC50 neutralization by RFFIT (Test A),[20],0.006 µg/mL
same,EC50 neutralization by RFFIT (Test A),[21],0.512 µg/mL
same,EC50 neutralization by RFFIT (Test A),[22],0.006 µg/mL
same,EC50 neutralization by RFFIT (Test A),[23],0.154 µg/mL
same,EC50 neutralization by RFFIT (Test A),[24],0.87 µg/mL
same,EC50 neutralization by RFFIT (Test A),[25],10 µg/mL
same,EC50 neutralization by RFFIT (Test A),[26],0.8 µg/mL
same,EC50 neutralization by RFFIT (Test A),[27],199 µg/mL
same,EC50 neutralization by RFFIT (Test A),[28],0.211 µg/mL
same,EC50 neutralization by RFFIT (Test A),[29],21.9 µg/mL
same,EC50 neutralization by RFFIT (Test A),[30],0.007 µg/mL
same,EC50 neutralization by RFFIT (Test A),[31],414 µg/mL
same,EC50 neutralization by RFFIT (Test A),[32],0.182 µg/mL
same,EC50 neutralization by RFFIT (Test A),[33],0.006 µg/mL
same,EC50 neutralization by RFFIT (Test A),[34],80.2 µg/mL
same,EC50 neutralization by RFFIT,[35],0.004 µg/mL
same,EC50 neutralization by RFFIT,[36],0.027 µg/mL
same,EC50 neutralization by RFFIT,[37],0.005 µg/mL
same,EC50 neutralization by RFFIT,[38],0.512 µg/mL
same,EC50 neutralization by RFFIT,[39],0.006 µg/mL
same,EC50 neutralization by RFFIT,[40],0.154 µg/mL
same,EC50 neutralization by RFFIT,[41],0.87 µg/mL
same,EC50 neutralization by RFFIT,[42],0.8 µg/mL
same,EC50 neutralization by RFFIT,[43],0.007 µg/mL
same,EC50 neutralization by RFFIT,[44],0.182 µg/mL
same,EC50 neutralization by RFFIT,[45],0.006 µg/mL
B2,EC50 neutralization by RFFIT (Test B),[1],0.011 µg/mL
same,EC50 neutralization by RFFIT (Test B),[2],< 0.0002 µg/mL
same,EC50 neutralization by RFFIT (Test B),[3],0.005 µg/mL
same,EC50 neutralization by RFFIT (Test B),[4],0.005 µg/mL
same,EC50 neutralization by RFFIT (Test B),[5],0.033 µg/mL
same,EC50 neutralization by RFFIT (Test B),[6],0.014 µg/mL
same,EC50 neutralization by RFFIT (Test B),[7],0.005 µg/mL
same,EC50 neutralization by RFFIT (Test B),[8],0.002 µg/mL
same,EC50 neutralization by RFFIT (Test B),[9],117 µg/mL
same,EC50 neutralization by RFFIT (Test A),[10],0.004 µg/mL
same,EC50 neutralization by RFFIT (Test A),[11],0.02 µg/mL
same,EC50 neutralization by RFFIT (Test A),[12],222 µg/mL
same,EC50 neutralization by RFFIT (Test A),[13],1.57 µg/mL
same,EC50 neutralization by RFFIT (Test A),[14],0.008 µg/mL
same,EC50 neutralization by RFFIT (Test A),[15],83 µg/mL
same,EC50 neutralization by RFFIT (Test A),[16],1620 µg/mL
same,EC50 neutralization by RFFIT (Test A),[17],> 2400 µg/mL
same,EC50 neutralization by RFFIT (Test A),[18],0.03 µg/mL
same,EC50 neutralization by RFFIT (Test A),[19],0.004 µg/mL
same,EC50 neutralization by RFFIT (Test A),[20],0.48 µg/mL
same,EC50 neutralization by RFFIT (Test A),[21],0.015 µg/mL
same,EC50 neutralization by RFFIT (Test A),[22],0.006 µg/mL
same,EC50 neutralization by RFFIT (Test A),[23],0.008 µg/mL
same,EC50 neutralization by RFFIT (Test A),[24],0.009 µg/mL
same,EC50 neutralization by RFFIT (Test A),[25],422 µg/mL
same,EC50 neutralization by RFFIT (Test A),[26],0.004 µg/mL
same,EC50 neutralization by RFFIT (Test A),[27],> 2400 µg/mL
same,EC50 neutralization by RFFIT (Test A),[28],0.043 µg/mL
same,EC50 neutralization by RFFIT (Test A),[29],864 µg/mL
same,EC50 neutralization by RFFIT (Test A),[30],0.006 µg/mL
same,EC50 neutralization by RFFIT (Test A),[31],> 2400 µg/mL
same,EC50 neutralization by RFFIT (Test A),[32],0.01 µg/mL
same,EC50 neutralization by RFFIT (Test A),[33],0.005 µg/mL
same,EC50 neutralization by RFFIT (Test A),[34],> 2400 µg/mL
same,EC50 neutralization by RFFIT,[35],0.008 µg/mL
same,EC50 neutralization by RFFIT,[36],0.03 µg/mL
same,EC50 neutralization by RFFIT,[37],0.004 µg/mL
same,EC50 neutralization by RFFIT,[38],0.015 µg/mL
same,EC50 neutralization by RFFIT,[39],0.006 µg/mL
same,EC50 neutralization by RFFIT,[40],0.008 µg/mL
same,EC50 neutralization by RFFIT,[41],0.009 µg/mL
same,EC50 neutralization by RFFIT,[42],0.004 µg/mL
same,EC50 neutralization by RFFIT,[43],0.006 µg/mL
same,EC50 neutralization by RFFIT,[44],0.01 µg/mL
same,EC50 neutralization by RFFIT,[45],0.005 µg/mL
